Source: publication PMC7072198 (2020)

Molecular target: EGFR extracellular domain (ECD), wild type (human, UniProt P00533 25-645)
Test: SPR

B1: rLZ-8^(Mut 3) (K16A/S18A/K41A/D45A) (natural protein)
chain: SDTALIFRLAWDVKALAFDYTPNWGRGNPNNFIDTVTFPAVLTAKAYTYRVAVSGRNLGVKPSYAVESDGSQKVNFLEYNSGYGIADTNTIQVFVVDPDTNNDFIIAQWN
  Kd: 9.22 nM

B2: recombinant Lingzhi-8 (rLZ-8), wild type (natural protein)
chain: MSDTALIFRLAWDVKKLSFDYTPNWGRGNPNNFIDTVTFPKVLTDKAYTYRVAVSGRNLGVKPSYAVESDGSQKVNFLEYNSGYGIADTNTIQVFVVDPDTNNDFIIAQWN
  Kd: 4.75 nM
